“Also recorded” adds a separate entry of the source.
Experiments:
[1] = molecular target: T1, rhNodal/rhCripto-1 complex (Homo sapiens, UniProt Q96S42); test: SPR competition assay: rhNodal pre-incubated with 3D1 injected over Cripto-1-derivatized chip; type: binding
T1 construct: E. coli derived His238 Leu347, with an N-terminal Met; purchased R&D Systems
T1 sequence (Q96S42 238-347): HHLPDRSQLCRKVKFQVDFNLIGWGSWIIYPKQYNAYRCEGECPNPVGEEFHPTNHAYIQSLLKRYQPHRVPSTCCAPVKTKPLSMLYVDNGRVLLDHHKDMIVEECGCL
Protocol: Next, experiments were conducted to assess the ability of 3D1 antibodies to inhibit binding between Nodal and Cripto-1 through SPR experiments. Experiments were performed on CM5 sensor chips with immobilized Cripto-1.
The antibody at 1:1 molar ratio prevents the binding of hNodal to hCripto-1-1 by about 70%. Accordingly, the invention provides that, in one embodiment, 3D1 can be used to prevent binding between Cripto-1 and Nodal (e.g., for therapeutic uses described herein (e.g., to inhibit and/or neutralize Cripto-1-mediated Nodal signaling)).
Competition assays. Competition assays were performed using Biacore sensor chips derivatized with rhCripto-1-1. The binding between immobilized rhCripto-1-1 and rhNodal was assessed by injecting solutions of the Nodal protein at increasing concentrations. rhNodal was incubated at 5 nM with 3D1 mAb at concentrations matching 1:0.5, 1:1 and 1:2 molar ratios (protein:mAb).
SPR analyses were performed at 25° C. using HBS as running buffer. Protein immobilization was carried out following the canonical amine coupling chemistry using the surface immobilization wizard procedure, operating at 5 μL/min. […] Dissociations were monitored for at least 3 additional minutes. […]

C8161 melanoma cells = test: Western blot analysis of C8161 melanoma cells treated with anti-Nodal antibody; type: cell-based, human; conditions: for phosphorylation of Smad2 and MAPK (ERK1/2): 1 hr to 72 hr
Protocol: Experiments were conducted in order to assess and characterize the ability of the 3D1 antibody to inhibit Nodal activity. 3D1 reduced Nodal expression, clonogenicity, and vasculogenic mimicry in metastatic melanoma cells (See FIG. 24). C8161 melanoma cells treated with an IgG-Control (negative control) or 4 μg/ml of either Santa Cruz (SC) (used as positive control) or 3D1 function blocking anti-Nodal antibodies for 72 hours.
Additional studies were performed in order to determine if 3D1 antibody could alter phosphorylation of Smad2 or MAPK. […] Western blot analysis of C8161 melanoma cells treated with 3D1 (4 μg/ml) vs. untreated control for 1 hr, 2 hr, 4 hr, 6 hr or 72 hr (See FIG. 25).
To determine the level of Nodal expression in brain, kidney, liver, pancreas, heart and skeletal muscle ready to use adult tissue extracts for Western blotting (WB) were purchased from Santa Cruz Biotechnology. For WB experiments of cell lines, whole cell lysates were prepared and quantified. SDS-PAGE gel electrophoresis and WB were performed using standard techniques. PVDF membranes were blocked in 5% non-fat milk or 5% BSA and antibodies diluted in either 5% non-fat milk or 5% bovine serum albumin overnight at 4° C., depending on the manufacturer's recommendations. Signal was detected using West Pico chemiluminescence reagent (Thermo Fisher) and exposure to x-ray film.

[2] = tested on: A375SM human metastatic melanoma cells; test: A375SM orthotopic xenograft in Nude mice; type: in vivo
Protocol: Experiments were carried out to determine the in vivo effects of 3D1 mAb on primary melanoma. To this end, 500,000 C8161 cells were injected subcutaneously in Nude mice. Palpable tumors were then injected directly with either 700 μg of total 3D1 mAb or IgG control antibody (alternate day intratumoral injection of 100 μg over 14 days). Mice were then sacrificed and subcutaneous tumors harvested and processed as previously described. To evaluate the effect of 3D1 mAb in the presence of the BRAF(V600E) mutation, a third orthotopic xenograft model was established in Nude mice via subcutaneous injection of approximately 150,000 A375SM human metastatic melanoma cells. Mice were treated IP with 3D1 mAb or IgG control, as described above, or 3 mg/kg of dabrafenib.
Four micron thick, formalin fixed, paraffin embedded tissue sections were prepared and immunohistochemistry was carried out on a Dako Plus autostainer (DAKO, Inc, Carpenteria, Calif.). Following antigen retrieval and blocking steps, sections were incubated in primary antibody for 60 mins, followed by appropriate biotinylated secondary antibody (Biocare Medical, Conrad, Calif.), and then streptavidin-horseradish peroxidase (Thermo Scientific Lab Vision). Color was developed with 3,3′-diaminobenzidine substrate (Thermo Scientific Lab Vision) and sections were counterstained with hematoxylin (Biocare Medical, LLC). As a negative control, adjacent serial sections were incubated with species appropriate irrelevant IgG (Jackson ImmunoResearch Labs) at the same concentration as primary antibodies. Similar to the lung tumor burden evaluation described above, mean percentage of positive staining±SEM was determined by 2 different observers, each calculating the ratio of positive cells/total number of cells×100 for 4 separate high power fields (63× objective) from at least 2 different mice per group.

B1: 3D1: mouse monoclonal anti-Nodal antibody raised against hNodal(44-67); light chain SEQ ID NO:1, heavy chains SEQ ID NO:2 and 3 (protein)
light: DIKMTQSPASLSASVGETVTITCRASGNIHNYLAWYQQKQGKSPQLLVYNAKTLADGVPSRFSGSGSGTQYSLKINSLQPEDFGSYYCQHFWSTPHVRCWDQAGTETEAW
heavy 1: VKLVESGGGLVKPGGSLKLSCAASGFTFSSYAMSWVRQTPEKRLEWVASISSGGCTYYPDSVKGRFTISRDNARNILYLQMSSLRSEDTAMYYCARGSMITADGNSLLLCYGLLGSRNLXHR
heavy 2: VKLVESGGGLVQPGGSMKLSCVASGFTFRNYWMSWVRQSPEKGLEWVAEIRLKSDNYAARYAESVKGKFTISRDDSKSRLYLQMNSLRAEDTGIYYCTGIRRFAYWGQGTL
modifications: not fully specified; (120)..(120) Xaa can be any naturally occurring amino acid
With B1 the “inhibition of the binding of Nodal to Cripto-1” value ([1]; 3D1 mAb at 5 nM (1:1 molar ratio), rhNodal 5 nM) was “approximately 70%”, the “prevention of binding of hNodal to hCripto-1” value ([1]; antibody at 1:1 molar ratio, 5 nM Nodal) was “about 70%” and the “inhibition of Nodal protein expression” value (C8161 melanoma cells; 4 μg/ml, 72 hours, Western blot vs IgG control) was 50%. The “phosphorylation of Smad2 and MAPK (ERK1/2)” value (C8161 melanoma cells; 4 μg/ml) was “reduced phosphorylation of Smad2 and MAPK”, the “phosphorylation of Smad2 and MAPK (ERK1/2)” value (C8161 melanoma cells; 4 μg/ml, listed as 3D1 mAb) was “reduction in phosphorylation; also recorded: reduced” and the p27 level (C8161 melanoma cells; 72 hr) was “increases”. The “phospho-Histone H3 (P-H3) level” value (C8161 melanoma cells; 72 hr) was “increases”, the Nodal expression (C8161 melanoma cells; 72 hr, 4 μg/ml, vs IgG control, listed as 3D1 mAb) was “reduction in Nodal expression” and the “Cyclin B1 level” value (C8161 melanoma cells; 72 hr, listed as 3D1 mAb) was “reduced; also recorded: reduction”. For the same molecule, the p27 level (C8161 melanoma cells; 72 hr, listed as 3D1 mAb) was “increase”, the “phospho-Histone H3 (P-H3) level” value (C8161 melanoma cells; 72 hr, listed as 3D1 mAb) was “reduction” and the “mean percentage (±SEM) of nuclear P-Smad2” value ([2]; IHC, N=4) was 28.1%±2.6%. For the same molecule, the tumor volumes ([2]; after 8 days, vs IgG control, listed as 3D1 mAb) was “significantly reduced; also recorded: significantly smaller”.
